The record followed here is patent publication US20100227772.

The data set deals with Antennapedia homeodomain (YPWM motif + homeodomain, Antp residues 297-364 in plasmid pAop3). The following applies: FCCS.

Like-named read-outs stand apart in the source and are kept apart here.

Regarding BS2 (16 bp), the Kd (average of 3 saturation curves, single curve of FIG. 3 gives 8.6 nM) was 5.1 nM. Regarding HB1 (36 bp), the Kd (average of 10 saturation curves, single curve of FIG. 2 gives 6.3 nM) was 3.6 nM.
